The values below come from PMC11008599.

By Kd is commonly meant the free concentration of one partner at which half of the binding sites on the other are occupied at equilibrium, for simple one-to-one binding. Low values mean a tighter complex, high ones a looser complex. As a reminder, the koff is a measure of how fast the partners let go of each other. High values mean a short-lived complex, low ones a long-lived complex. Usually kon stands for the second-order rate constant of association. Read a low kon as slow association.

For test [1], the target named is aIL2_1-aIL2_1, BECN1 frameworks (bovine (knob domain)). Nature of the test: SPR; multicycle kinetics, Biacore 8K+; knob domain constructs immobilised on a CM5 chip via amine coupling, IL-2 in solution; HBS-EP+; two-state binding model, only the fastest association and the slowest dissociation rate constants reported. In general terms: SPR reads the build-up and loss of mass on a sensor chip optically.

The target of test [2] is aIL2_1-K8 (G4P linker), BECN1 frameworks (bovine (knob domain)). The test is described as above.
The target of test [3] is aIL2_1-aIL2_1-K8, BECN1 frameworks (bovine (knob domain)). The description is as above.
Test [4] has as its target bispecific/bivalent aIL2_1-aIL2_1-K8 fusion, SNV-N stalks, GGGGP linkers. Nature of the test: SPR; bridging SPR assay: immobilised C5, binding cycles of the knob domain fusions, then a binding cycle of IL-2.
Test [5] has as its target aIL2_1-aIL2_1-K8, SNV-N frameworks (bovine (knob domain)). The test can be described thus: SPR; […], Biacore 8K+; […]; HBS-EP+; […].
Test [6] addresses aIL2_1-K8 (G4P linker), SNV-N frameworks (bovine (knob domain)). The test can be described thus: SPR; […], Biacore 8K+; […]; HBS-EP+; […].
In test [7] the target is aIL2_1-aIL2_1, SNV-N frameworks (bovine (knob domain)). Nature of the test: SPR; […], Biacore 8K+; […]; HBS-EP+; […].
The target in test [8] is aIL2_1-K8 (G4P linker), SNV-N frameworks (bovine (knob domain)). Nature of the test: SPR; […], Biacore 8K+; […]; HBS-EP+ (10 mM HEPES pH 7.4, 150 mM NaCl, 3 mM EDTA, 0.005% P20); 1:1 binding model.
The target of test [9] is K8-K57, SNV-N frameworks (bovine (knob domain)). The description is as above.
The target of test [10] is aIL2_1-K8 (G4P linker), BECN1 frameworks (bovine (knob domain)). Nature of the test: SPR; multicycle kinetics, Biacore 8K+; knob domain constructs immobilised on a CM5 chip via amine coupling, C5 in solution; HBS-EP+ (10 mM HEPES pH 7.4, 150 mM NaCl, 3 mM EDTA, 0.005% P20); 1:1 binding model.
Test [11] concerns the target K8-K57, BECN1 frameworks (bovine (knob domain)). The description is as above.

aIL2_1-K8 (G4P linker), BECN1 frameworks (bovine (knob domain)), sequence (main, as listed by the source): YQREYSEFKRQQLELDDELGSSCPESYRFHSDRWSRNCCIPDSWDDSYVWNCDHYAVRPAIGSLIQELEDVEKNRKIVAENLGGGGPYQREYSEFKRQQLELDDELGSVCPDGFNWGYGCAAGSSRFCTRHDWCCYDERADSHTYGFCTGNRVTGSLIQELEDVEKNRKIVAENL
human IL-2, sequence (P60568 21-153): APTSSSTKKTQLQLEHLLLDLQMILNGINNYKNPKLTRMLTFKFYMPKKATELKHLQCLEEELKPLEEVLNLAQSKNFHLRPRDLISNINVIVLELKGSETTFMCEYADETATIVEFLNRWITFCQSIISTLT
aIL2_1-aIL2_1-K8, BECN1 frameworks (bovine (knob domain)), sequence (main, as listed by the source): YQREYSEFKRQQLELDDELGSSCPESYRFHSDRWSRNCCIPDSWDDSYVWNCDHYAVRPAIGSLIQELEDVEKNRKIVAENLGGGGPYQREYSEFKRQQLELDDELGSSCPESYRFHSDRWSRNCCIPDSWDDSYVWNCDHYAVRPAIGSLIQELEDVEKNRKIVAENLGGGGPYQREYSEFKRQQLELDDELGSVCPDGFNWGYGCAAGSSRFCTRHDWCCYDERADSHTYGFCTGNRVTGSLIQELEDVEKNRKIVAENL
aIL2_1-aIL2_1, BECN1 frameworks (bovine (knob domain)), sequence (main, as listed by the source): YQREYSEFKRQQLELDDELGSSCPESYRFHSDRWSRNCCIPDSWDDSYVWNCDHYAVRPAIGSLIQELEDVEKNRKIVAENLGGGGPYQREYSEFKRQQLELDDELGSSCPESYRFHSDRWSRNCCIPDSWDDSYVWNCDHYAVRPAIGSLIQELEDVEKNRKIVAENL

On to “human IL-2 (from UniProt P60568 21-153) (natural protein)”, for which the equilibrium dissociation constant (Kd) was found to be 7.5 nM in test [1]; 10 nM in test [2]; 7.1 nM in test [3]; 5.5 nM in test [5]; 9 nM in test [6]; 5.7 nM in test [7]. In test [4], this substance came in with an increase in signal upon IL-2 binding of 26 RU.
Regarding “complement component 5 (natural protein)”, the dissociation constant (Kd) in test [8] amounted to 26 nM; in test [9], 1.18 nM; in test [10], 29 nM; in test [11] it was 0.9 nM. The dissociation rate constant (koff) came to 0.00025 s⁻¹ in test [8], 1.83e-05 s⁻¹ in test [9], 0.00026 s⁻¹ in [10] and 2.8e-05 s⁻¹ in test [11]. Moreover, the kon in test [8] is 9700 M⁻¹ s⁻¹; in test [9] it was 15400 M⁻¹ s⁻¹; in test [10], 8800 M⁻¹ s⁻¹; in test [11], 31000 M⁻¹ s⁻¹.
